Patent US20250270313A1

Target: human Claudin 18.2 (hClaudin18.2) (human) (UniProt P56856)
Experiment: flow cytometry on CHO cells overexpressing claudin18.2

Substance: IMAB362-FC (Fc fusion)
- EC50: 2 µg/mL
